Measurements taken from patent US20260125454A1 (SHANGHAI JUNSHI BIOSCIENCES, published 2026).

T1: Biotin-huCGRPaSA (human, not fully specified; biotin (position not given))
T1 construct: exact construct ('aSA') not explained; also called Biotin CGRPaSA; full-length (1-37) CGRP
T1 peptide: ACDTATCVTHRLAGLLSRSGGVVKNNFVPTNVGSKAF


What was measured:
Biotin-huCGRPaSA = molecular target: T1, Biotin-huCGRPaSA; assay: ELISA, supernatant; relative to chimeric C245
Method in brief: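 Plates coated with biotin-CGRPaSA at 1.0 μg/mL (90 min, 37°C) and blocked with 2% BSA. Humanized antibodies and chimeric C245 reference, 2.5-fold serial dilutions from 1000 ng/mL, bound 60 min at 37°C. Detection by HRP anti-human IgG (Fc), TMB 15 min, read at 450/620 nm.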

CGRP antigen = assay: cell-based or functional assay

Binder	Relative binding activity, % (Biotin-huCGRPaSA) [%]	IC50 (CGRP antigen) [µg/mL]	relative activity (%) vs C245 (CGRP antigen) [%]	relative activity (%) vs Ref(TEVA) (CGRP antigen) [%]
hu226 (antibody, V domains shown, 3C1 HC-2/3C1 LC-1) VH: QVQLVQSGAEVKKPGASVKVSCKASGYTFTGYTMNWVRQAPGQRLEWMGLINPYIGNTHYNQKFKDRVTFTVDRSSSTAYMELSSLRSEDTAVYYCARELDSGFDYWGQGTLVTVSS VL: DVVMTQSPLSLPVTLGQPASISCRSSQNIVHSNGDTYLEWYQQRPGQSPRLLIYKVSNRFSGVPDRFSGSGSGTDFTLKISRVEAEDVGVYYCYQGSHVPWTFGQGTKLEIK	65	0.0446	53	–
hu229 (antibody, V domains shown, 3C1 HC-2/3C1 LC-4) VH: QVQLVQSGAEVKKPGASVKVSCKASGYTFTGYTMNWVRQAPGQRLEWMGLINPYIGNTHYNQKFKDRVTFTVDRSSSTAYMELSSLRSEDTAVYYCARELDSGFDYWGQGTLVTVSS VL: DVVMTQSPDSLAVSLGERATINCRSSQNIVHSNADTYLEWYQQKPGQPPKLLIYKVSNRFSGVPDRFSGSGSGTDFTLTISSLQAEDVAVYYCYQGSHVPWTFGQGTKLEIK	48	0.0851	28	–
hu228 (antibody, human IgG4 S228P, kappa, V domains shown) VH: QVQLVQSGAEVKKPGASVKVSCKASGYTFTGYTMNWVRQAPGQRLEWMGLINPYIGNTHYNQKFKDRVTFTVDRSSSTAYMELSSLRSEDTAVYYCARELDSGFDYWGQGTLVTVSS VL: DVVMTQSPDSLAVSLGERATINCRSSQNIVHSNGDTYLEWYQQKPGQPPKLLIYKVSNRFSGVPDRFSGSGSGTDFTLTISSLQAEDVAVYYCYQGSHVPWTFGQGTKLEIKR	68	0.0267	88	–
hu235 (antibody, V domains shown, 3C1 HC-4/3C1 LC-2) VH: QVQLVQSGAEVKKPGASVKVSCKASGYTFTGYTMNWVRQAPGQGLEWMGLINPYIGNTHYNQKFKDRVTFTVDRSSSTAYMELSRLRSDDTAVYYCARELDSGFDYWGQGTLVTVSS VL: DVVMTQTPLSLSVTPGQPASISCRSSQNIVHSNGDTYLEWYLQKPGQSPQLLIYKVSNRFSGVPDRFSGSGSGTDFTLKISRVEAEDVGVYYCYQGSHVPWTFGQGTKLEIK	74	0.0619	45	–
hu237 (antibody, V domains shown, 3C1 HC-4/3C1 LC-4) VH: QVQLVQSGAEVKKPGASVKVSCKASGYTFTGYTMNWVRQAPGQGLEWMGLINPYIGNTHYNQKFKDRVTFTVDRSSSTAYMELSRLRSDDTAVYYCARELDSGFDYWGQGTLVTVSS VL: DVVMTQSPDSLAVSLGERATINCRSSQNIVHSNADTYLEWYQQKPGQPPKLLIYKVSNRFSGVPDRFSGSGSGTDFTLTISSLQAEDVAVYYCYQGSHVPWTFGQGTKLEIK	65	0.129	22	–
hu222 (antibody, V domains shown, 3C1 HC-1/3C1 LC-1) VH: QVQLVQSGAEVKKPGASVKVSCKASGYSFTGYTMNWVRQAPGQRLEWMGLINPYIGNTHYNQKFKDRVTFTVDRSSSTAYMELSSLRSEDTAVYYCARELDSGFDYWGQGTLVTVSS VL: DVVMTQSPLSLPVTLGQPASISCRSSQNIVHSNGDTYLEWYQQRPGQSPRLLIYKVSNRFSGVPDRFSGSGSGTDFTLKISRVEAEDVGVYYCYQGSHVPWTFGQGTKLEIK	65	0.039	46	–
hu234 (antibody, V domains shown, 3C1 HC-4/3C1 LC-1) VH: QVQLVQSGAEVKKPGASVKVSCKASGYTFTGYTMNWVRQAPGQGLEWMGLINPYIGNTHYNQKFKDRVTFTVDRSSSTAYMELSRLRSDDTAVYYCARELDSGFDYWGQGTLVTVSS VL: DVVMTQSPLSLPVTLGQPASISCRSSQNIVHSNGDTYLEWYQQRPGQSPRLLIYKVSNRFSGVPDRFSGSGSGTDFTLKISRVEAEDVGVYYCYQGSHVPWTFGQGTKLEIK	50	0.0429	65	–
hu230 (antibody, V domains shown, 3C1 HC-3/3C1 LC-1) VH: QVQLVQSGSELKKPGASVKVSCKASGYTFTGYTMNWVRQAPGQGLEWMGLINPYIGNTHYNQKFKDRFVFSVDRSSSTAYLQISSLKAEDTAVYYCARELDSGFDYWGQGTLVTVSS VL: DVVMTQSPLSLPVTLGQPASISCRSSQNIVHSNGDTYLEWYQQRPGQSPRLLIYKVSNRFSGVPDRFSGSGSGTDFTLKISRVEAEDVGVYYCYQGSHVPWTFGQGTKLEIK	64	0.0464	56	–
hu225 (antibody, V domains shown, 3C1 HC-1/3C1 LC-4) VH: QVQLVQSGAEVKKPGASVKVSCKASGYSFTGYTMNWVRQAPGQRLEWMGLINPYIGNTHYNQKFKDRVTFTVDRSSSTAYMELSSLRSEDTAVYYCARELDSGFDYWGQGTLVTVSS VL: DVVMTQSPDSLAVSLGERATINCRSSQNIVHSNADTYLEWYQQKPGQPPKLLIYKVSNRFSGVPDRFSGSGSGTDFTLTISSLQAEDVAVYYCYQGSHVPWTFGQGTKLEIK	52	0.185	10	–
hu223 (antibody, V domains shown, 3C1 HC-1/3C1 LC-2) VH: QVQLVQSGAEVKKPGASVKVSCKASGYSFTGYTMNWVRQAPGQRLEWMGLINPYIGNTHYNQKFKDRVTFTVDRSSSTAYMELSSLRSEDTAVYYCARELDSGFDYWGQGTLVTVSS VL: DVVMTQTPLSLSVTPGQPASISCRSSQNIVHSNGDTYLEWYLQKPGQSPQLLIYKVSNRFSGVPDRFSGSGSGTDFTLKISRVEAEDVGVYYCYQGSHVPWTFGQGTKLEIK	71	0.0353	51	–
hu233 (antibody, V domains shown, 3C1 HC-3/3C1 LC-4) VH: QVQLVQSGSELKKPGASVKVSCKASGYTFTGYTMNWVRQAPGQGLEWMGLINPYIGNTHYNQKFKDRFVFSVDRSSSTAYLQISSLKAEDTAVYYCARELDSGFDYWGQGTLVTVSS VL: DVVMTQSPDSLAVSLGERATINCRSSQNIVHSNADTYLEWYQQKPGQPPKLLIYKVSNRFSGVPDRFSGSGSGTDFTLTISSLQAEDVAVYYCYQGSHVPWTFGQGTKLEIK	68	0.0877	30	–
hu236 (antibody, V domains shown, 3C1 HC-4/3C1 LC-3) VH: QVQLVQSGAEVKKPGASVKVSCKASGYTFTGYTMNWVRQAPGQGLEWMGLINPYIGNTHYNQKFKDRVTFTVDRSSSTAYMELSRLRSDDTAVYYCARELDSGFDYWGQGTLVTVSS VL: DVVMTQSPDSLAVSLGERATINCRSSQNIVHSNGDTYLEWYQQKPGQPPKLLIYKVSNRFSGVPDRFSGSGSGTDFTLTISSLQAEDVAVYYCYQGSHVPWTFGQGTKLEIK	68	0.0514	55	–
hu232 (antibody, V domains shown, 3C1 HC-3/3C1 LC-3) VH: QVQLVQSGSELKKPGASVKVSCKASGYTFTGYTMNWVRQAPGQGLEWMGLINPYIGNTHYNQKFKDRFVFSVDRSSSTAYLQISSLKAEDTAVYYCARELDSGFDYWGQGTLVTVSS VL: DVVMTQSPDSLAVSLGERATINCRSSQNIVHSNGDTYLEWYQQKPGQPPKLLIYKVSNRFSGVPDRFSGSGSGTDFTLTISSLQAEDVAVYYCYQGSHVPWTFGQGTKLEIK	70	0.044	59	–
hu227 (antibody, V domains shown, 3C1 HC-2/3C1 LC-2) VH: QVQLVQSGAEVKKPGASVKVSCKASGYTFTGYTMNWVRQAPGQRLEWMGLINPYIGNTHYNQKFKDRVTFTVDRSSSTAYMELSSLRSEDTAVYYCARELDSGFDYWGQGTLVTVSS VL: DVVMTQTPLSLSVTPGQPASISCRSSQNIVHSNGDTYLEWYLQKPGQSPQLLIYKVSNRFSGVPDRFSGSGSGTDFTLKISRVEAEDVGVYYCYQGSHVPWTFGQGTKLEIK	64	0.0368	64	–
hu231 (antibody, human IgG4 S228P, kappa, V domains shown) VH: QVQLVQSGSELKKPGASVKVSCKASGYTFTGYTMNWVRQAPGQGLEWMGLINPYIGNTHYNQKFKDRFVFSVDRSSSTAYLQISSLKAEDTAVYYCARELDSGFDYWGQGTLVTVSS VL: DVVMTQTPLSLSVTPGQPASISCRSSQNIVHSNGDTYLEWYLQKPGQSPQLLIYKVSNRFSGVPDRFSGSGSGTDFTLKISRVEAEDVGVYYCYQGSHVPWTFGQGTKLEIKR	68	0.0284	91	–
hu38 (antibody, V domains shown, 1F5 HC-1/3H10 LC2-1) VH: QVQLVQSGAEVKKPGASVKVSCKASGYTFIDFNMHWVRQAPGQRLEWMGYIYPYNGDVVYNQNFTNRVTLTVDTSSSTAYMELSSLRSEDTAVYYCAREGLGGYWGQGTLVTVSS VL: DIVLTQSPDSLAVSLGERATINCKASQNIDYGGYSYMNWYQQKPGQPPKVLIYSVFNLESGVPDRFSGSGSGTDFTLTISSLQAEDVAVYYCQQSNEAPYTFGQGTKLEIK	139	0.0725	–	50
